Assay results from patent US20060177452A1 (BURNHAM INSTITUTE FOR MEDICAL RESEARCH, published 2006).
No end group written: not given here.

Assays:
[1] = target: EphB4 ectodomain fused to human Fc, carboxy-terminal hexahistidine tag (human); experiment: inhibition of ephrin-B2 AP binding to immobilized EphB4 ectodomain Fc
[2] = target: EphB4 ectodomain fused to human Fc, carboxy-terminal hexahistidine tag (human); experiment: inhibition of ephrin-B2 AP binding to immobilized EphB4 ectodomain Fc (FIG. 6B)
[3] = target: T1, endogenous EphB4 of MCF7 human breast cancer cells (human, UniProt P54760 16-987); experiment: biotinylated TNYL and streptavidin quantum dots, fluorescence microscopy of MCF-7 cells
T1 construct: whole, on cells; In pull-downs it stood in cell lysates; also called endogenous EphB4 (MCF-7)
T1 sequence (looked up): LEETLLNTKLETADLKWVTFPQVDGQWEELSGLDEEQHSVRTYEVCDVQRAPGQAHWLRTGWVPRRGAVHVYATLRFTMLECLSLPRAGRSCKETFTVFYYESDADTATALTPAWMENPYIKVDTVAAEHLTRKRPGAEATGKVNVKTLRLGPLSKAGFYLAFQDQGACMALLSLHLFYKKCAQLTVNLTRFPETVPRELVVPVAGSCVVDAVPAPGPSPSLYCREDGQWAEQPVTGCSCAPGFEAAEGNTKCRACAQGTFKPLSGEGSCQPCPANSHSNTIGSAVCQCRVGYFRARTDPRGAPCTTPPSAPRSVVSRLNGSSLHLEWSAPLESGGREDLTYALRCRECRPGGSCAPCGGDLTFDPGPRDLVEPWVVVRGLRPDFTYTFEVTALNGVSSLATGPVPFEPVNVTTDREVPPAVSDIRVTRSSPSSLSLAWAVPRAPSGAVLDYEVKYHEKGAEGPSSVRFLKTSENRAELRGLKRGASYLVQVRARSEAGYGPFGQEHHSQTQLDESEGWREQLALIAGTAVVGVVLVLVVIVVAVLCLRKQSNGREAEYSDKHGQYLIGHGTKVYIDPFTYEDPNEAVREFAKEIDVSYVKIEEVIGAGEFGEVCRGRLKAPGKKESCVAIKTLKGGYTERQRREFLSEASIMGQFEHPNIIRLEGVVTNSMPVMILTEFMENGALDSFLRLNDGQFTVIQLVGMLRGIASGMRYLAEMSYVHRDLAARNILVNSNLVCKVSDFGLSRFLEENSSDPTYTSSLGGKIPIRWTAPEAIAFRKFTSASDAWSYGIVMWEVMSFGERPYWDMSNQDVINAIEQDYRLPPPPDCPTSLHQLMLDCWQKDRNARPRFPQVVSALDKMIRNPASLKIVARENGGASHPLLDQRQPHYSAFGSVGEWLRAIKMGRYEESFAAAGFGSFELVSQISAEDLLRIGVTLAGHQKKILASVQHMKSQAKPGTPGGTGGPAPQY

[4] = target: T2, EphB4 ectodomain fused to human Fc, carboxy-terminal hexahistidine tag (human); experiment: inhibition of ephrin-B2 AP binding to immobilized EphB4 ectodomain Fc; biotinylated peptide
T2 chain: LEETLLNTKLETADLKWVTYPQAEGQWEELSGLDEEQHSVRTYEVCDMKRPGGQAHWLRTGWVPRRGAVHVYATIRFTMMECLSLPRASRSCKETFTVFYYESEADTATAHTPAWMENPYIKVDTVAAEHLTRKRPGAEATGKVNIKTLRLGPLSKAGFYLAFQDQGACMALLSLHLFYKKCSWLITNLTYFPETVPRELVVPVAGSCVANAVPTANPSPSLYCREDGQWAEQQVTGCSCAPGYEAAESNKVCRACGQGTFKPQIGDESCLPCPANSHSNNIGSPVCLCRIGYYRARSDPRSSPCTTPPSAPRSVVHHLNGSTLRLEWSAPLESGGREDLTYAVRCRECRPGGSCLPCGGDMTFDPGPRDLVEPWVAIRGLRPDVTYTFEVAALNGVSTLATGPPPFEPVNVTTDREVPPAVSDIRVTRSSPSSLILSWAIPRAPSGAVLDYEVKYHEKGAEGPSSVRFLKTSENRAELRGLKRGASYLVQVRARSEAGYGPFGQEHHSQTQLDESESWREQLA

[5] = target: T2, EphB4 ectodomain fused to human Fc, …; experiment: phage ELISA on immobilized EphB Fc
[6] = target: T3, EphB2 ectodomain fused to human Fc, carboxy-terminal hexahistidine tag (human); experiment: phage ELISA on immobilized EphB Fc
T3 chain: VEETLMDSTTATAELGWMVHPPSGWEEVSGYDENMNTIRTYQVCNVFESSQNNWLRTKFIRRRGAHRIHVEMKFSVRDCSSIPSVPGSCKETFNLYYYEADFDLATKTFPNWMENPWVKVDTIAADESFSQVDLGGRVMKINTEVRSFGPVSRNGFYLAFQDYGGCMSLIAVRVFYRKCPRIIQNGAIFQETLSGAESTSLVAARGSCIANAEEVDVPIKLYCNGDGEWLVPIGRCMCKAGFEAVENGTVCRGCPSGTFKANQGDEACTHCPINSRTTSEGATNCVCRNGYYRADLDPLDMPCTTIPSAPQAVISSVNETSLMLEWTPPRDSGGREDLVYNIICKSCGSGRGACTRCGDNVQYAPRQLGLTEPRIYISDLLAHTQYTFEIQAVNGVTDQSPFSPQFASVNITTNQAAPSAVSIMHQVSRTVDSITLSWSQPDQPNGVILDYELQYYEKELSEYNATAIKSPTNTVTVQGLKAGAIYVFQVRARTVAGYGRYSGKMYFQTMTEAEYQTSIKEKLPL

[7] = target: EphB1 ectodomain fused to human Fc, carboxy-terminal hexahistidine tag (human); experiment: inhibition of ephrin-B2 AP binding to immobilized EphB1 ectodomain Fc; biotinylated peptide
[8] = target: T3, EphB2 ectodomain fused to human Fc, …; experiment: inhibition of ephrin-B2 AP binding to immobilized EphB2 ectodomain Fc; biotinylated peptide
[9] = target: T2, EphB4 ectodomain fused to human Fc, …; experiment: inhibition of ephrin-B2 AP binding to immobilized EphB4 ectodomain Fc (FIG. 6A)

ephrin-B2 Fc (Fc fusion)
IC50 [1]: 0.009 µM | IC50 [2]: 9 µM

TNYLFSPNGPIAGSGS (also: C-terminal biotin on linker (form not given here), also called biotinylated TNYL) [TNYL peptide, synthetic, biotinylated]
binding result [3]: binds | IC50 [4]: ~50 µM

NPVIGPIQRAWTGSGS (also: C-terminal biotin on linker (form not given here)) [NPVI peptide, synthetic, biotinylated]
IC50 [4]: > 500 µM

LPHGPVAAWDA (coat-protein fusion not described)
% Binding [5]: 100% | % Binding [6]: 15%

B1: DALN peptide, synthetic, biotinylated (peptide)
peptide: DALNDWLLFRPWGSGS
modifications: also: C-terminal biotin, via GSGSK Lys side chain or biotinyl-ethylenediamine, not settled
IC50 [4]: > 100 µM

B2: AHTF peptide, synthetic, biotinylated (peptide)
peptide: AHTFPYPHPKPHGSGS
modifications: C-terminal biotin: on the Lys side chain of a GSGSK linker, or N-biotinyl-ethylenediamine after GSGS (which one is not stated)
IC50 [7]: 150 µM

B3: SHWPI peptide, synthetic, biotinylated (peptide)
peptide: SHWPISPYSLLSGSGS
modifications: also: C-terminal biotin, via GSGSK Lys side chain or biotinyl-ethylenediamine, not settled
IC50 [8]: > 100 µM

B4: WHWT peptide, synthetic, biotinylated (peptide)
peptide: WHWTIEPFAITSGSGS
modifications: C-terminal biotin: on the Lys side chain of a GSGSK linker, or N-biotinyl-ethylenediamine after GSGS (which one is not stated)
IC50 [8]: > 100 µM

B5: DHNH peptide, synthetic, biotinylated (peptide)
peptide: DHNHNLYNPWRLGSGS
modifications: also: C-terminal biotin, via GSGSK Lys side chain or biotinyl-ethylenediamine, not settled
IC50 [4]: ~200 µM

SGHQLLNKMPN (coat-protein fusion not described)
% Binding [5]: 100%

B6: DHWRI peptide, synthetic, biotinylated (peptide)
peptide: DHWRILPFSLSSGSGS
modifications: also: C-terminal biotin, via GSGSK Lys side chain or biotinyl-ethylenediamine, not settled
IC50 [8]: > 100 µM

TNYLFSPNGPIARAW [TNYL-RAW peptide, non-biotinylated]
IC50 [9]: ~0.015 µM | fold lower IC50 than non-biotinylated TNYL [9]: 10000 fold
